Data taken from patent US20090239794A1, “HCV F PROTEIN AND USES THEREOF” (priority 2004, published 2009).
Where “and” joins values, the source holds several entries; their conditions need not be identical. Identical values can stand only once.

Test system: C57Bl/6 mice
Experiment: Protocol 1: ARFP immunization of mice, total anti-ARFP Ig ELISA
[1] = individual mice 31-45, 1st immunization (day 0), listed as ARFP
[2] = individual mice 31-45, 2nd immunization (day 13), listed as ARFP
[3] = individual mice 31-45, 3d immunization (day 35), listed as ARFP
[4] = individual mice 31-45, Sacrifice (day 53), listed as ARFP

Method: Plates were blocked for 2 h/4° C. with 200 μl per well of 5 mg/ml bovine serum albumin (BSA) in 100 mM NaHCO3 pH 8.6, and were washed 6 times with 10 mM tris base, 150 mM NaCl, 0.05% Tween-20 pH 7.4 (1×TBST). […] After 90 min, optical density was measured at 410 nm in a MR7000 spectrophotometer (Dynatec, Chantilly, Va.).
In a first set of experiments, induction of ARFP-specific humoral (i.e. antibody) immune responses was tested as follows.
Protocol 1. […] Ten 5-week old female C57Bl/6 mice were injected with 100 μl phosphate-buffered saline and were used as controls. An identical immunization procedure was repeated on day 13, and again on day 35. 200 μl of blood was obtained by maxillary bleeding prior to each immunization (days 0, 13, and 35). Mice were sacrificed by CO2 asphyxiation and bled by cardiac puncture on day 53. All blood samples were centrifuged and sera was collected and frozen at −80° C. until used. Total immunoglobulin (Ig) responses (IgA, IgM, and IgG) were tested by enzyme-linked immuno-sorbent assay (ELISA) as described in Example 1, except that alkaline phosphatase-conjugated anti-mouse polyvalent immunoglobulins (G, A, M) (A-0162, Sigma, St. Louis, Mo.) were used instead of alkaline phosphatase-conjugated monoclonal anti-human IgG (A-2064, Sigma). […] Optical density was measured at 410 nm (Table 4). […] The ELISA threshold value was set at 3 times the OD410 measured in the negative control with the highest readout (highlighted in Table 6).

B1: Fmut8Δ11: truncated recombinant HCV-1a F protein lacking the first 11 N-terminal residues shared with core; SEQ ID NO: 12; produced in E. coli (protein)
chain: PNVTPTVAHRTSSSRVAVRSLVEFTCCRAGALDWVCARRGRLPSGRNLEVDVSLSPRHVGPRAGPGLSPGTLGPSMAMRAADGRDGSCLPVALGLVGAPQTPGVGRAIWVRSSIPSRAASPTSWGTYRSSAPPLEALPGPWRMASGFWRTA
modifications: Hepatitis C virus
ARFP-specific Ig titer, mean+/−standard deviation (before the 2nd immunization): 10.00+/−27.08 | anti-ARFP Ig titer, mean+/−standard deviation (day 35): 1400+/−419.5 | anti-ARFP Ig titer, mean+/−standard deviation (day 53): 1547+/−199.6 | Titer (anti-ARFP Ig ELISA) (individual mice 31-45, 1st immunization (day 0)): 0 | ELISA OD410, serum dilution 1/50 [1]: 0.211 and 0.209 and 0.199 and 0.218 and 0.323 and 0.278 and 0.229 and 0.166 and 0.236 and 0.243 and 0.247 and 0.208 and 0.206 and 0.205 and 0.217 | ELISA OD410, serum dilution 1/100 [1]: 0.128 and 0.115 (2×) and 0.174 and 0.208 and 0.186 and 0.171 and 0.152 and 0.161 (2×) and 0.145 and 0.134 and 0.132 and 0.142 and 0.127 | ELISA OD410, serum dilution 1/200 [1]: 0.123 and 0.150 and 0.128 and 0.136 (2×) and 0.114 and 0.111 and 0.121 and 0.113 (2×) and 0.104 and 0.117 and 0.164 and 0.144 and 0.140 | ELISA OD410, serum dilution 1/400 [1]: 0.132 and 0.164 and 0.114 and 0.118 and 0.116 and 0.121 and 0.133 and 0.115 and 0.104 and 0.110 and 0.120 and 0.128 and 0.191 and 0.138 and 0.126 | ELISA OD410, serum dilution 1/800 [1]: 0.119 and 0.138 and 0.113 and 0.118 and 0.115 (2×) and 0.117 and 0.128 and 0.108 and 0.103 and 0.105 and 0.123 and 0.134 and 0.137 and 0.114 | ELISA OD410, serum dilution 1/1600 [1]: 0.138 and 0.122 and 0.109 (2×) and 0.110 and 0.116 and 0.124 and 0.108 and 0.106 and 0.107 and 0.105 and 0.119 and 0.129 and 0.127 and 0.114 | ELISA OD410, serum dilution 1/50 [2]: 0.732 and 0.272 and 0.750 and 0.293 and 0.231 and 0.965 and 0.137 and 0.916 and 0.132 and 0.13 and 0.186 and 0.049 and 0.046 and 0.048 and 0.045 | ELISA OD410, serum dilution 1/100 [2]: 0.306 and 0.117 and 0.197 and 0.157 and 0.138 and 0.890 and 0.113 and 0.742 and 0.112 and 0.116 and 0.105 and 0.045 and 0.053 and 0.048 and 0.046 | ELISA OD410, serum dilution 1/200 [2]: 0.165 and 0.113 and 0.166 and 0.127 and 0.160 and 0.815 and 0.108 and 0.441 and 0.107 (2×) and 0.111 and 0.102 and 0.798 and 0.116 and 0.123 | ELISA OD410, serum dilution 1/400 [2]: 0.147 and 0.110 (2×) and 0.154 and 0.121 and 0.117 and 0.677 and 0.328 and 0.107 and 0.105 and 0.115 and 0.101 and 0.279 and 0.103 and 0.120 | ELISA OD410, serum dilution 1/800 [2]: 0.124 and 0.106 (5×) and 0.137 and 0.123 and 0.125 and 0.454 and 0.105 and 0.219 and 0.099 and 0.097 and 0.273 | ELISA OD410, serum dilution 1/1600 [2]: 0.120 (2×) and 0.118 (2×) and 0.119 and 0.590 and 0.104 and 0.171 and 0.105 and 0.108 and 0.103 and 0.096 and 0.223 and 0.110 (2×) | Titer (anti-ARFP Ig ELISA) [2]: 0 (13×) and 100 and 50 | ELISA OD410, serum dilution 1/50 [3]: 3.652 and 3.551 and 3.142 and 3.623 and 3.509 and 3.334 and 3.530 and 3.887 and 3.464 and 3.796 and 1.628 and 1.467 and 2.140 and 2.336 and 2.453 | ELISA OD410, serum dilution 1/100 [3]: 3.642 and 2.683 and 3.700 and 2.841 and 3.563 and 3.625 and 3.306 and >4.000 (2×) and 3.808 and 1.093 and 1.941 and 2.487 and 1.264 and 2.058 | ELISA OD410, serum dilution 1/200 [3]: 3.616 and 2.046 and 3.630 and 2.088 and 3.556 and 3.596 and 2.436 and 3.957 and 3.541 and >4.000 and 3.494 and 2.657 and 1.722 and 0.993 and 1.772 | ELISA OD410, serum dilution 1/400 [3]: 3.569 and 1.681 and 3.296 and 1.522 and 3.465 and 3.590 and 1.859 and 3.799 and 3.582 and 3.896 and 3.238 and 2.397 and 1.929 and 0.725 and 1.607 | ELISA OD410, serum dilution 1/800 [3]: 3.434 and 1.072 and 3.166 and 0.937 and 3.213 and 3.438 and 1.297 and 3.425 and 3.053 and 2.776 and 2.442 and 2.015 and 1.185 and 0.508 and 1.517 | ELISA OD410, serum dilution 1/1600 [3]: 3.521 and 0.641 and 3.190 and 0.590 and 3.181 and 3.455 and 0.931 and 3.139 and 2.783 and 1.989 and 1.713 and 1.578 and 0.957 and 0.408 and 1.453 | Titer (anti-ARFP Ig ELISA) [3]: >1600 (12×) and 800 (2×) and 200 | ELISA OD410, serum dilution 1/50 [4]: 2.023 and 2.008 and 1.658 and 1.054 and 1.709 and 1.411 and 1.314 and 1.736 and 2.224 and 1.741 and 1.006 and 1.424 and 1.613 and 1.434 and 1.373 | ELISA OD410, serum dilution 1/100 [4]: 2.028 and 1.542 and 1.830 and 1.646 and 1.839 and 1.829 and 1.483 and 2.139 and 1.904 and 1.714 and 1.872 and 1.790 and 1.912 and 1.489 and 1.880 | ELISA OD410, serum dilution 1/200 [4]: 2.202 and 2.602 and 1.876 and 1.837 and 1.805 and 2.091 and 1.948 and 2.168 and 2.422 and 1.540 and 1.773 and 1.658 and 1.724 and 1.471 and 2.006 | ELISA OD410, serum dilution 1/400 [4]: 2.376 and 2.547 and 1.889 and 1.913 and 1.776 and 2.225 and 1.925 and 2.356 and 2.456 and 1.266 and 1.783 and 1.907 and 1.312 and 1.223 and 1.919 | ELISA OD410, serum dilution 1/800 [4]: 2.490 and 1.574 and 1.874 and 1.814 and 1.617 and 2.117 and 1.671 and 1.664 and 2.196 and 0.928 and 1.825 and 2.059 and 1.478 and 1.136 and 2.197 | ELISA OD410, serum dilution 1/1600 [4]: 2.209 and 1.970 and 2.157 and 1.987 and 1.674 and 2.269 and 1.574 and 1.671 and 1.659 and 0.648 and 1.749 and 2.062 and 1.233 and 1.157 and 1.672 | Titer (anti-ARFP Ig ELISA) [4]: >1600 (14×) and 800
